Reference: article PMC6761512, “Trypanosoma cruzi Phosphomannomutase and Guanosine Diphosphate-Mannose Pyrophosphorylase Ligandability Assessment” (Antimicrobial Agents and Chemotherapy, 2019)

B1: T. cruzi PMM enzyme (Trypanosoma cruzi strain CL Brener) (protein)
chain: MKKVLLLFDIDGTLTPPRLSQPDEVREVIRRAKSAGFTVGTVGGSDLAKQIEQLGEDVFQQFDYVFAENGLLAYKHGKEIHRQNLLKELGNERIVKFVRRALRLLSELDIPVQRGTFIEYRNGMINVCPIGRNCTQSERDEFEVYDKEHHVREKLIKELQNSFPDYGLKYSIGGQISFDVFPVGWDKSYCLRFVENDFDEIHFFGDKTHAGGNDYEIYTDKRIIGHAVKSYKDTVDEVNKLISSK
B2: T. cruzi GDP-MP enzyme (Trypanosoma cruzi strain CL Brener) (protein)
chain: MSEEKKSVANSKGMRAVILVGGYGTRLRPLTLTMPKPLVPFCNKPIIVHQVEALRDAGVTEVILAVAYRSDAMRKNMDYWSKELGVSFVFSLEEEPLGTAGPLALARDILLQDDQPFFVLNADITCRFPLRELLSFHQKSGKEGTIAVTKVTDWQKYGVVVFDEATGVIDQFVEKPKNFVGDRINAGIYVFNKSVLNRIKVEKTSIETQVFPQMASAKQLCAFILEGFWMDIGVPKDYIEGVGKYLRSLNGTPKESQEVYGFGQAHKTDDFTVIGSVIIDPSAKIGKGCVIGPFATIGPGCVIGPTSRIRNSAILDESTIGKGTLVDSSIIGWKSRVGSWCRVVNNTVLGEDVEVKDELFLNGIKVLPNKSILQSYHEPEVVM

Tests used:
[1] = substrate: O=P(O)(O)OC[C@H]1O[C@H](OP(=O)(O)O)[C@H](O)[C@@H](O)[C@@H]1O; assay: Km determination with the PMM-GDP-MP assay; format: biochemical, Trypanosoma cruzi; conditions: other: PMM substrate and cofactor, mean of three independent replicates, pH 7.5
Experimental: (§1) All enzyme and substrate solution dilutions were prepared in assay buffer comprising 25 mM Tris-HCl (pH 7.5), 150 mM NaCl, 4 mM MgCl2, 0.01% (vol/vol) Tween 20, and 1 mM dithiothreitol in ultrapure water. Biochemical assays were performed in a 50-μl final assay volume using clear 384-well assay microplates (Greiner, catalog no. 781101) at room temperature. Unless stated otherwise, all reagent concentrations are written as final biochemical assay concentrations, and DMSO or compounds were added to assay plates using Echo acoustic dispensers (Labcyte). Reagent addition for high-throughput screening assays was performed using an Xrd-384 liquid dispenser (FluidX, UK) and a BioFill Solo/Xrd-384 16 channel resin nozzle (2.00 to 200 μl) tubing cartridge (FluidX, catalog no. 34-1005-S). Biochemical reactions were terminated by addition of 50 μl of BIOMOL Green (Enzo Life Sciences, catalog no. BML-AK111-1000) reagent, after which absorbance was measured following a 30-min incubation at room temperature. Absorbance measurements were performed at 650 nm using a PHERAStar microplate reader (BMG Labtech, Germany), and the data are represented as relative absorbance units (RAU). Linear and nonlinear regression was performed using the SigmaPlot 12.5 software, unless stated otherwise.
(§2) To measure the activity of the T. cruzi PMM enzyme, a PMM-GDP-MP biochemical assay system was used. […]

[2] = substrate: O=C[C@@H](O)[C@@H](O)[C@H](O)[C@H](O)COP(=O)(O)O; assay: Km determination with the PMM-GDP-MP assay; format: biochemical, Trypanosoma cruzi; conditions: other: PMM substrate and cofactor, mean of three independent replicates, pH 7.5
Experimental: as §1, §2

[3] = substrate: O=P(O)(O)O[C@H]1O[C@H](CO)[C@@H](O)[C@H](O)[C@@H]1O; assay: Km determination with the GDP-MP assay; format: biochemical; conditions: other: GDP-MP substrates; mean of three independent replicates; pH 7.5
Experimental: as §1, with “otherwise. […]” for “otherwise.”

[4] = substrate: Nc1nc2c(ncn2[C@@H]2O[C@H](COP(=O)(O)OP(=O)(O)OP(=O)(O)O)[C@@H](O)[C@H]2O)c(=O)[nH]1; assay: Km determination with the GDP-MP assay; format: biochemical; conditions: other: GDP-MP substrates; mean of three independent replicates; pH 7.5
Experimental: as §1, with “otherwise. […]” for “otherwise.”

| Protein | Km [1] [µM] | Km [2] [µM] | Km [3] [µM] | Km [4] [µM] |
| --- | --- | --- | --- | --- |
| B1 | 7.8 | 48.2 | – | – |
| B2 | – | – | 13.3 | 40.7 |
